# B1: Prp16p (wild type), LexA-bait fusion [budding yeast] / Brr2 H2-Sec63-2p (wild type), Gal4AD-prey fusion [budding yeast] (parent complex)
# chain 1: MGHSGREERIKDIFKELTSKELTPGLLLTLQKLAQKPNTNLEQFIASCKALTKLSSNNPIIFNELLELLKNKSEEDSTGPKKIAPSINKRKKFKIQLDLDDNEDELDSPVQKKPAPTRTLFKRIDKLKAKQLRQYSPTVKDPSPNSEQQTQNGHAETKDYEPTRSEVVEEDREWYDNDDDYGNLVPEPLSELPEEAKLLPVIRNIDNDDALRNTVQLYPIPLKQRMEWIPPFLSKFALENKVPTSIIIGSISETSSQVSALSMVNPFRNPDSEFSANAKRGSKLVALRRINMEHIQQSRDNTTVLNTAMGEVLGLENNNKAKDKSNQKICDDTALFTPSKDDIKHTKEQLPVFRCRSQLLSLIRENQVVVIIGETGSGKTTQLAQYLYEEGYANDRGKSIVVTQPRRVAAISVAKRVAMEMQVPLGKEVGYSIRFEDVTDSECTKLKFVTDGILLRETLLDDTLDKYSCVIIDEAHERSLNTDILLGFFKILLARRRDLKLIITSATMNAKKFSAFFGNAPQFTIPGRTFPVQTIYTSNPVQDYVEAAVSQAVKIHLANDCSSGDILIFMTGQEDIETTFDTLQEKFLQVYSKKFGTANFEEINDIEILPIYSALPADLQFKIFQDLHGTKRKIIIATNIAETSLTIKGIRYVIDCGYSKLKVYNPKIGLDSLVITPISKANADQRSGRAGRTAPGTAYRLYTEDTFKEDMYLQTIPEIQRTNLSNTLLLLKSLDVTDELSKFPFIDKPPLQTFLSSLYELWFIGAIDTSGQLTPLGLQMAKFPLQPSLSKILLIAVRNGCSDEMLTIVSMLSVPQVFYRPKERQKEADIARNKFFIAKSDHLTLLNVFEQWRANNFSSHWCNKHFVQYKSLVRARDIRDQLLTILKSQKIPVISSGKDWDIIKKCICSGFAHQAAKITGLRNYVHLKTGVSVQLHPTSALHGLGDLPPYVVYHELLMTSKEYICCVTSVDPFWLMEYGGLLYDIKRIKNDQEATTTGLFGEHYEHTLDKVEDDIDINIRRCKDMRDSVIQELKMTDNSNKEDKKQKTKKQNILNGKENSMKPFKRRKPFF
# chain 2: MTEHETKDKAKKIREIYRYDEMSNKVLKVDKRFMNTSQNPQRDAEISQPKSMSGRISAKDMGQGLCNNINKGLKENDVAVEKTGKSASLKKIQQHNTILNSSSDFRLHYYPKDPSNVETYEQILQWVTEVLGNDIPHDLIIGTADIFIRQLKENEENEDGNIEERKEKIQHELGINIDSLKFNELVKLMKNITDYETHPDNSNKQAVAILADDEKSDEEEVTEMSNNANVLGGEINDNEDDDEEYDYNDVEVNSKKKNKRALPNIENDIIKLSDSKTSNIESVPIYSIDEFFLQRKLRSELGYKDTSVIQDLSEKILNDIETLEHNPVALEQKLVDLLKFENISLAEFILKNRSTIFWGIRLAKSTENEIPNLIEKMVAKGLNDLVEQYKFRETTHSKRELDSGDDQPQSSEAKRTKFSNPAIPPVIDLEKIKFDESSKLMTVTKVSLPEGSFKRVKPQYDEIHIPAPSKPVIDYELKEITSLPDWCQEAFPSSETTSLNPIQSKVFHAAFEGDSNMLICAPTGSGKTNIALLTVLKALSHHYNPKTKKLNLSAFKIVYIAPLKALVQEQVREFQRRLAFLGIKVAELTGDSRLSRKQIDETQVLVSTPEKWDITTRNSNNLAIVELVRLLIIDEIHLLHDDRGPVLESIVARTFWASKYGQEYPRIIGLSATLPNYEDVGRFLRVPKEGLFYFDSSFRPCPLSQQFCGIKERNSLKKLKAMNDACYEKVLESINEGNQIIVFVHSRKETSRTATWLKNKFAEENITHKLTKNDAGSKQILKTEAANVLDPSLRKLIESGIGTHHAGLTRSDRSLSEDLFADGLLQVLVCTATLAWGVNLPAHTVIIKGTDVYSPEKGSWEQLSPQDVLQMLGRAGRPRYDTFGEGIIITDQSNVQYYLSVLNQQLPIESQFVSKLVDNLNAEVVAGNIKCRNDAVNWLAYTYLYVRMLASPMLYKVPDISSDGQLKKFRESLVHSALCILKEQELVLYDAENDVIEATDLGNIASSFYINHASMDVYNRELDEHTTQIDLFRIFSMSEEFKYVSVRYEEKRELKQLLEKAPIPIREDIDDPLAKVNVLLQSYFSQLKFEGFALNSDIVFIHQNAGRLLRAMFEICLKRGWGHPTRMLLNLCKSATTKMWPTNCPLRQFKTCPVEVIKRLEASTVPWGDYLQLETPAEVGRAIRSEKYGKQVYDLLKRFPKMSVTCNAQPITRSVMRFNIEIIADWIWDMNVHGSLEPFLLMLEDTDGDSILYYDVLFITPDIVGHEFTLSFTYELKQHNQNNLPPNFFLTLISENWWHSEFEIPVSFNGFKLPKKFPPPTPLLENISISTSELGNDDFSEVFEFKTFNKIQSQVFESLYNSNDSVFVGSGKGTGKTAMAELALLNHWRQNKGRAVYINPSGEKIDFLLSDWNKRFSHLAGGKIINKLGNDPSLNLKLLAKSHVLLATPVQFELLSRRWRQRKNIQSLELMIYDDAHEISQGVYGAVYETLISRMIFIATQLEKKIRFVCLSNCLANARDFGEWAGMTKSNIYNFSPSERIEPLEINIQSFKDVEHISFNFSMLQMAFEASAAAAGNRNSSSVFLPSRKDCMEVASAFMKFSKAIEWDMLNVEEEQIVPYIEKLTDGHLRAPLKHGVGILYKGMASNDERIVKRLYEYGAVSVLLISKDCSAFACKTDEVIILGTNLYDGAEHKYMPYTINELLEMVGLASGNDSMAGKVLILTSHNMKAYYKKFLIEPLPTESYLQYIIHDTLNNEIANSIIQSKQDCVDWFTYSYFYRRIHVNPSYYGVRDTSPHGISVFLSNLVETCLNDLVESSFIEIDDTEAEVTAEVNGGDDEATEIISTLSNGLIASHYGVSFFTIQSFVSSLSNTSTLKNMLYVLSTAVEFESVPLRKGDRALLVKLSKRLPLRFPEHTSSGSVSFKVFLLLQAYFSRLELPVDFQNDLKDILEKVVPLINVVVDILSANGYLNATTAMDLAQMLIQGVWDVDNPLRQIPHFNNKILEKCKEINVETVYDIMALEDEERDEILTLTDSQLAQVAAFVNNYPNVELTYSLNNSDSLISGVKQKITIQLTRDVEPENLQVTSEKYPFDKLESWWLVLGEVSKKELYAIKKVTLNKETQQYELEFDTPTSGKHNLTIWCVCDSYLDADKELSFEINVK
# Variants of: B1
# Assay: Y2H interaction assay; growth on -LWH medium with 3-AT; parent: 50 nM
row,Variant,screen value
1,chain 1 Q685H,50 mM
2,chain 1 K379R,50 mM
3,chain 1 H476D,50 mM
4,chain 1 R686Q,50 mM
5,chain 1 R686I,0 mM
6,"chain 1 R456K, chain 1 G691R",0 mM
7,chain 1 D473E,50 mM
8,chain 1 T507A,50 mM
9,chain 1 L335F,50 mM

# Variants of: B1
# Assay: as above
# Remark: another data set of the same source
row,Variant,screen value
1,chain 2 R1899G,150 mM
2,chain 2 L1951P,0 mM
